In general, EC50 refers to the concentration that produces a half-maximal response. Higher therefore signals weaker potency.

Drawing on patent US20210340276A1, this text covers EC50 for seven molecules.

The chains are these.
B1: Sample No. 1: [DFO-C(═O)-(1,3-phenylene)-C(═O)-Gly-Lys-Z2]p-Fab (Fab, V domains shown)
VH: QVQLVQSGAEVKKPGASVKVSCKASGYTFTNYGLSWVRQAPGQGLEWMGENHPGSGIIYHNEKFRGRVTLTADRSTSTAYMELSSLRSEDTAVYYCARSSGTRGFDYWGQGTLVTVSS
VL: DVVMTQTPLSLSVTPGQPASISCRSSQSIVHSNGNTYLEWYLQKPGQSPQLLIYRVSNRFSGVPDRFSGSGSGTDFTLKISRVEAEDVGVYYCFQGSHGPWTFGQGTKLEIKR
modifications: may carry the labeling moiety; sites not stated; [DFO-C(═O)-(1,3-phenylene)-C(═O)-Gly-Lys-Z2] labeling moiety bound via 2-iminothiolane to amino group(s) of the Fab, one or two per Fab by MS, sites and chain not stated; N-terminal Gln into pyroglutamic acid in a great majority (Example 2)
B2: Sample No. 5: [DOTA-Gly-Lys-Z2]p-Fab (Fab, V domains shown)
VH: B1 VH
VL: B1 VL
modifications: may carry the labeling moiety; sites not stated; [DOTA-Gly-Lys-Z2] labeling moiety bound via 2-iminothiolane to amino group(s) of the Fab, one or two per Fab by MS, sites and chain not stated; N-terminal Gln into pyroglutamic acid in a great majority (Example 2)
B3: Sample No. 7: [DOTA-Met-Ile-NH-(CH2)2-Z1]p-Fab (Fab, V domains shown)
VH: B1 VH
VL: B1 VL
modifications: may carry the labeling moiety; sites not stated; [DOTA-Met-Ile-NH-(CH2)2-Z1] labeling moiety bound via 2-iminothiolane to amino group(s) of the Fab, one to three per Fab by MS, sites and chain not stated; N-terminal Gln into pyroglutamic acid in a great majority (Example 2)
B4: Sample No. 3: [DOTA-CH2-(1,4-phenylene)-NH-C(═S)]p-Fab (Fab, V domains shown)
VH: B1 VH
VL: B1 VL
modifications: may carry the labeling moiety; sites not stated; [DOTA-CH2-(1,4-phenylene)-NH-C(═S)] (from p-SCN-Bn-DOTA) bound to amino group(s) of the Fab, one to four per Fab by MS, sites and chain not stated; N-terminal Gln into pyroglutamic acid in a great majority (Example 2)
B5: Sample No. 6: [DOTA-NH-CH2-(1,3-phenylene)-C(═O)-Gly-Lys-Z2]p-Fab (Fab, V domains shown)
VH: B1 VH
VL: B1 VL
modifications: may carry the labeling moiety; sites not stated; [DOTA-NH-CH2-(1,3-phenylene)-C(═O)-Gly-Lys-Z2] labeling moiety bound via 2-iminothiolane to amino group(s) of the Fab, one to three per Fab by MS, sites and chain not stated; N-terminal Gln into pyroglutamic acid in a great majority (Example 2)
B6: Sample No. 2: [DFO-C(═O)-CH2O-(1,3-phenylene)-C(═O)-Gly-Lys-Z2]p-Fab (Fab, V domains shown)
VH: B1 VH
VL: B1 VL
modifications: may carry the labeling moiety; sites not stated; [DFO-C(═O)-CH2O-(1,3-phenylene)-C(═O)-Gly-Lys-Z2] labeling moiety bound via 2-iminothiolane to amino group(s) of the Fab, one or two per Fab by MS, sites and chain not stated; N-terminal Gln into pyroglutamic acid in a great majority (Example 2)
B7: Sample No. 4: [DOTA]p-Fab (Fab, V domains shown)
VH: B1 VH
VL: B1 VL
modifications: may carry the labeling moiety; sites not stated; DOTA bound directly (via N-hydroxysulfosuccinimidyl DOTA) to amino group(s) of the Fab, one or two per Fab by MS, sites and chain not stated; N-terminal Gln into pyroglutamic acid in a great majority (Example 2)

In this experiment the target is Human cancer-specific MUC1 peptide (PTL 1) (human). Kind of experiment: ELISA, MUC1 peptide immobilized on 384-well plate, HRP anti-human Igκ detection, luminescence. (In an ELISA, binding on a coated surface is turned into a signal by an enzyme label.)
The molecule B1 had an EC50 of 0.29 nM.
As for B2, the figure is 0.31 nM; as for B3, 0.31 nM.
Next, B4: 0.49 nM; B5: 0.3 nM; B6: 0.3 nM.
As for B7, the figure is 0.35 nM.
